In the assay the target is SARS-nCoV-2 Spike RBD (Raybiotech, catalog no. 230-30162), recombinant wildtype (SARS-CoV-2, UniProt P0DTC2 319-541).

B1: IgG 106/107 (antibody, V domains shown)
VH: EVQLVESGGGLVQPGGSLRLSCVASGITVSANYMSWVRQAPGKGLEWVSVIYSGGSTFYADSVKGRFTISRDNSKNTLYLQMNNLRADDTAVYSCARDFRGATAFDIWGQGTMVTVSS
VL: QSALTQPASVSGSPGQSITISCTATSSDVDDYNYVSWYQQHPGKAPKLLIYDVNNRPSGVSNRFSGSKSGNTASLTISGLQAEDEADYYCSSYTSSSTGVFGSGTKVTVLG
In general, IC50 refers to the point on the concentration scale where inhibition reaches its midpoint. For B1, the concentration for half-maximal inhibition (IC50) is < 0.5 nM.

The values are drawn from patent publication US20250230222A1 (NORTHWESTERN UNIVERSITY, published 2025).
